Test results: US20210292423A1 (published 2021)

Columns and labels:
[1] = target: T1, human CD3ε/δ-Fc fusion protein (soluble recombinant CD3ε/δ complex) (human, UniProt P04234 22-105); assay: SPR single point, hybridoma supernatant
T1 construct: also called huCD3ε/δ; huCD3; not shown: hinge, CH2, CH3 of human IgG with tag
Method: Rats with positive sera were scarified and B cells were fused with mouse myeloma cells. The resulting hybrndomas were screened on HEK293 cells transfected with human or cynomoligus CD3ε and CD3δ expression plasmids, on Jurkat E6.1 (CD3+) and Jurkat T3.5 (CD3-) by flow cytometry. Supernatant of Hybridoma clones was used to assess by surface plasmon resonance single point kinetic against human and Macaca fascicularis CD3ε/δ complex by fixing the analyte at 25 nM (data presented in table 3).

[2] = target: T1, human CD3ε/δ-Fc fusion protein (soluble …); assay: SPR Biacore, CODV-Fab on recombinant CD3ε/δ
Method: Binding affinities of anti-CD3 binding Fabs or CODV-Fabs were measured by surface plasmon resonance (SPR) using a Biacore3000 instrument (GE Healthcare). Assay buffer was HBS-EP (BR-1001-88, GE Healthcare). Capture of CD3ε/δ-Fc fusion proteins was achieved using the human antibody capture kit (GE Healthcare). […] The CD3εδ-Fc fusions proteins were captured at 10 μl/min to approx. 70 RU to yield Rmax values of 30 RU. Binding kinetics with the anti-CD3 Fabs or CODV-Fabs was measured at 30 μl/min for 240 sec. and 600 sec. for association and dissociation phase, respectively. Twofold dilutions of Fabs from 3 to 400 nM in assay buffer were used. All Fab concentrations were run in duplicate together with duplicate buffer blanks for double referencing. Regeneration of the capture surface was performed with a 1 min injection of 3M MgCl2 solution at 30 μl/min. For data analysis the BIAevaluation software v.4.1 (GE Healthcare) was used. Data were fit globally using a 1:1 Langmuir model with mass transfer.

T1 sequence (chain, as listed by the source mutant, chain 1 of 2): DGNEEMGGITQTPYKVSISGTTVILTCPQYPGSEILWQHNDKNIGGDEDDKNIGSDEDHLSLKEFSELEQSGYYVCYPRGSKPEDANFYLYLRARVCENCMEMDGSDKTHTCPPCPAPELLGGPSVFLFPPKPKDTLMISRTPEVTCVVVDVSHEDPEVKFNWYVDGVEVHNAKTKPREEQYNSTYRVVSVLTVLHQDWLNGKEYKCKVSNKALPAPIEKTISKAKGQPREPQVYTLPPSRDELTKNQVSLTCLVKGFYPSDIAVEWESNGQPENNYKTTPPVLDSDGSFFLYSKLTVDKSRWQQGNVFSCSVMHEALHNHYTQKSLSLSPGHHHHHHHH
T1 sequence (P04234 22-105, stated change not applied, chain 2 of 2): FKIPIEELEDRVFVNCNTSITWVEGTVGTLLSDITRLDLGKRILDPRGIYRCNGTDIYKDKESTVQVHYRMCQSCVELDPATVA

B1: 11F9-F8 anti-CD3 antibody (hybridoma supernatant) (antibody, V domains shown)
VH: EVQLVETGGTLVQPGKSLKLTCATSGFTFSNAWMHWVRQSPEKQLEWVAQIKAKSNNYATYYAESVKGRFTISRDDSKTSVYLQLNSLREEDTAIYYCRGTQYGYNPFDYWGQGVMVTVSS
VL: DVVLTQTPVSLSVSLGGQVSISCRSSQSLVHNNGNTYLSWSLQKPGQSPQVLIYKVSNRFSGISNRFSGSGSGTDFTLKISRVEPDDLGVYYCGQGAHYPFTFGSGTKLEIK
notes: rat IgG in hybridoma supernatant
B1 was tested, and the “RU at 25 nM” value [1] was 11.5 RU.

B2: 12G3-E8 anti-CD3 antibody (hybridoma supernatant) (antibody, V domains shown)
VH: EVRVVETGGSLVQPGKSLKLTCATSGFTFSLAWMHWVRQSPEKKLEWVAQIKDKANNYATYYAESVKGRFTISRDDSKRSVYLQMNRLKEEDTAIYYCRGVYYGFSMTPFDYWGQGVMVTVSS
VL: DVAMTQTPVSLSVSLGGQVSISCRSSQSLVHNNGNTYLSWYLQKPGQSPQVLIYKVSNRFSGISDRFSGSGSGADFTLKISRVEPDDLGVYYCGQGTQYPFTFGAGTKLELK
notes: as for B1
In the case of B2, the “RU at 25 nM” value [1] is reported as 24 RU.

B3: 4B4-D7 anti-CD3 antibody (hybridoma supernatant) (antibody, V domains shown)
VH: EVQLVETGGRLVQPGRSLKLTCATSGFTFSNAWMHWVRQSPEKQLEWVAQIKARSNNYATYYAESVKGRFTISRDDSKSTIYLQMNSLKEEDTAIYYCRGTYYASKPFDYWGQGVMVTVSS
VL: DVVMTQTPVSLSVSLGGQVSISCRSSQSLVHDNGNTYLSWSLQRPGQSPQVLIYKVSNRFSGTSDRFTGSGSGTDFTLKISRVEPDDLGVYYCGQGTQYPFTFGSGTKLEIK
notes: as for B1
For B3, the “RU at 25 nM” value [1] was 11 RU.

B4: 10E6-G6 anti-CD3 antibody (hybridoma supernatant) (antibody, V domains shown)
VH: EVQLVETGGGLVQSGKSLKLTCATSGFTVTNAWMHWVRQSPEKQLEWVAQIKAKSNNYETYYAESVKGRFTISRDDSKSSVYLQMNSLKEEDTAIYYCRGTQYGYNPFDYWGQGVMVTVSS
VL: DVVMTQSPVSLSVSLGGQVSISCRSSQSLVHNNGYTYLSWYLQKPGQSPQVFIYKVSNRFSGISDRFSGSGSGTDFTLKISRIEPDDLGVYYCGQGTHYPFTFGSGTKLEIK
notes: as for B1
B4 was tested, and the “RU at 25 nM” value [1] was 10.5 RU.

B5: 11D7-C3 anti-CD3 antibody (hybridoma supernatant) (antibody, V domains shown)
VH: EVQFVETGGSLVQPGKSLKLTCATSGFTFSNAWMHWVRQSPEKQLEWVAQIKAKSNNYATYYAESVKGRFTISRDDSKSSVYLQMNSLKEEDTATYYCRGLYYGLSPSDYWGQGVMVTVSS
VL: DVVMTQTPVSLSVSLGGQVSISCRSSQSLVHNNGNTYLSWYLQKPGQSPQLLIYKVSNRFSGISDRFSGSGSGTDFTLKISRVEPDDLGVYYCGQGTHYPFTFGSGTKLEIK
notes: as for B1
With B5 the “RU at 25 nM” value [1] was 17 RU.

B6: 11F3-B9 anti-CD3 antibody (hybridoma supernatant) (antibody, V domains shown)
VH: EVQLVETGGSLVQPGKSLTLTCATSGFTFSNAWMHWVRQSPEKQLEWVAQIKAKSNNYATYYAESVKGRFTISRDDSKRSVYLQMNSLKEEDTAIYYCRYVNYGLAPMDVWGQGTSVTVSS
VL: DVVMTQTPVSLSVSLGGQVSISCRSSQSLVHDNGNTYLSWYLQKPGQSPQLLIYKVSNRFSGFSDRFSGSGSGTDFTLKISRVEPDDLGVYYCGQGTQYPFTFGAGTKLELK
notes: as for B1
For B6, the “RU at 25 nM” value [1] was 22 RU.

B7: 4E7-C9 anti-CD3 antibody (hybridoma supernatant) (antibody, V domains shown)
VH: EVQVVETGGSLVQPGKSLKLTCATSGFTFSNAWMHWVRQSPEKQLEWVAQIKDKSNNYATYYAESLKGRFTISRDDPKRSIYLQMNSLREEDTAIYYCRYVHYGIGYAMDAWGQGTSVTVSS
VL: DVVMTQTPVSLSVSLGGQVSISCRSSQSLEHNNGNTYLSWYLQKPGQSPQPLIYKVSNRFSGISDRFSGSGSGTDFTLKISRVEPDDLGVYYCGQGTQYPFTFGPGTKLELK
notes: as for B1
With B7 the “RU at 25 nM” value [1] was 2.5 RU.

B8: 13C1-F6 anti-CD3 antibody (hybridoma supernatant) (antibody, V domains shown)
VH: EVQLVETGGTLVQPGKSLKLTCATSGFTFSNAWMHWVRQSPEKQLEWVAQIKAKSNNYATYYAESVKGRFTISRDDSKTSVYLQLNSLREEDTAIYYCRGTQYGYNPFDYWGQGVMVTVSS
VL: DVVMTQSPVSLSVSLGGQVSISCRSSQSLVHNNGNTYLSWYLQRSGQSPQLLIYKVSNRLSGISDRFSGSGSGTDFTLKISRIEPDDLGVYYCGQGTQYPFTFGSGTRLEIK
notes: as for B1
In the case of B8, the “RU at 25 nM” value [1] is reported as 17 RU.

B9: 8H2-F3 anti-CD3 antibody (hybridoma supernatant) (antibody, V domains shown)
VH: QIQLVQSGPELKKPGESVKISCKASGYTFTDFAMNWVKQAPGNGLKWMGWINTQTGKPTYADGFKQRFVFSLETSASTIYLQINNLNIEDTATYFCTRGALASVGQGVMVTVSS
VL: DVVMTQTPVSLSVAIGQPASISCKSSQSLVGTSGKTYLNWLLQRPGQSPKRLIYLVSKLDSGIPDRFSGSGSETDFTLKISRVETDDLGVYYCLQGSHFPLTFGSGTKLEIK
notes: as for B1
With B9 the “RU at 25 nM” value [1] was 32.5 RU.

B10: 13H2-C3 anti-CD3 antibody (hybridoma supernatant) (antibody, V domains shown)
VH: EEELVETGGSLVQPGKSLKLTCATSGFTFSNAWMHWVRQSPDKQLEWVAQIKAKSNNYATYYAESVKGRFTISRDDSKSSVYLQMNNLKEEDTAIYYCRYVHYGLAPMDAWGQGTSVTVSS
VL: DVVMTQTPVSLSVSLGGQVSISCRSSQSLVHNNGNTYLSWYLQKAGQSPQLLIYKVSNRFSGISDRFSGSGSGTDFILKISRVEPDDLGVFYCGQGTQYPFTFGAGTKLELK
notes: rat IgG in hybridoma supernatant; also called 13H2-C2
With B10 the “RU at 25 nM” value [1] was 16 RU.

B11: CODV-Fab 7G3 × 20G6 with humanized 20G6 VL1C_VH1D (bispecific antibody)
light: DIVMTQTPLSLSVTPGQPASISCKSSQSLVHNNANTYLSWYLQKPGQSPQSLIYKVSNRFSGVPDRFSGSGSGTDFTLKISRVEAEDVGVYYCGQGTQYPFTFGSGTKVEIKGQPKAAPDFVMTQSPSSLTVTAGEKVTMSCKSSQSLLNSGNQKNYLTWYLQKPGQPPKLLIYWASTRESGVPDRFTGSGSGTDFTLTISSVQAEDLAVYYCQNDYSYPYTFGGGTKLEIKTKGPSRTVAAPSVFIFPPSDEQLKSGTASVVCLLNNFYPREAKVQWKVDNALQSGNSQESVTEQDSKDSTYSLSSTLTLSKADYEKHKVYACEVTHQGLSSPVTKSFNRGEC
heavy: EVQLQQSGPELVKPGASVKMSCKASGYTFTDYYMKWVKQSHGKSLEWIGDIIPSNGATFYNQKFKGKATLTVDRSSSTAYMHLNSLTSEDSAVYYCTRSHLLRASWFAYWGQGTLVTVSASQVQLVESGGGVVQPGRSLRLSCAASGFTFTKAWMHWVRQAPGKQLEWVAQIKDKSNSYATYYADSVKGRFTISRDDSKNTLYLQMNSLRAEDTAVYYCRGVYYALSPFDYWGQGTLVTVSSRTASTKGPSVFPLAPSSKSTSGGTAALGCLVKDYFPEPVTVSWNSGALTSGVHTFPAVLQSSGLYSLSSVVTVPSSSLGTQTYICNVNHKPSNTKVDKKVEPKSCDKTHTHHHHHH
Work on B11 yielded a Kd [2] of 0.044 µM, a koff [2] of 0.00101 s⁻¹ and a kon [2] of 23000 M⁻¹ s⁻¹.

B12: CODV-Fab 7G3 × 20G6 with humanized 20G6 VL1D_VH1D (bispecific antibody)
light: DIVMTQTPLSLSVTPGQPASISCKSSQSLVHNNGNTYLSWYLQKPGQSPQSLIYKVSNRFSGVPDRFSGSGSGTDFTLKISRVEAEDVGVYYCGQGTQYPFTFGSGTKVEIKGQPKAAPDFVMTQSPSSLTVTAGEKVTMSCKSSQSLLNSGNQKNYLTWYLQKPGQPPKLLIYWASTRESGVPDRFTGSGSGTDFTLTISSVQAEDLAVYYCQNDYSYPYTFGGGTKLEIKTKGPSRTVAAPSVFIFPPSDEQLKSGTASVVCLLNNFYPREAKVQWKVDNALQSGNSQESVTEQDSKDSTYSLSSTLTLSKADYEKHKVYACEVTHQGLSSPVTKSFNRGEC
heavy: EVQLQQSGPELVKPGASVKMSCKASGYTFTDYYMKWVKQSHGKSLEWIGDIIPSNGATFYNQKFKGKATLTVDRSSSTAYMHLNSLTSEDSAVYYCTRSHLLRASWFAYWGQGTLVTVSASQVQLVESGGGVVQPGRSLRLSCAASGFTFTKAWMHWVRQAPGKQLEWVAQIKDKSNSYATYYADSVKGRFTISRDDSKNTLYLQMNSLRAEDTAVYYCRGVYYALSPFDYWGQGTLVTVSSRTASTKGPSVFPLAPSSKSTSGGTAALGCLVKDYFPEPVTVSWNSGALTSGVHTFPAVLQSSGLYSLSSVVTVPSSSLGTQTYICNVNHKPSNTKVDKKVEPKSCDKTHTHHHHHH
notes: same V domains as hz20G6x7G3 but the other order
B12 was tested, and the Kd [2] was 0.031 µM, the koff [2] was 0.000746 s⁻¹ and the kon [2] was 24000 M⁻¹ s⁻¹.

B13: CODV-Fab 7G3 × 20G6 with humanized 20G6 VL1D_VH1C (bispecific antibody)
light: DIVMTQTPLSLSVTPGQPASISCKSSQSLVHNNGNTYLSWYLQKPGQSPQSLIYKVSNRFSGVPDRFSGSGSGTDFTLKISRVEAEDVGVYYCGQGTQYPFTFGSGTKVEIKGQPKAAPDFVMTQSPSSLTVTAGEKVTMSCKSSQSLLNSGNQKNYLTWYLQKPGQPPKLLIYWASTRESGVPDRFTGSGSGTDFTLTISSVQAEDLAVYYCQNDYSYPYTFGGGTKLEIKTKGPSRTVAAPSVFIFPPSDEQLKSGTASVVCLLNNFYPREAKVQWKVDNALQSGNSQESVTEQDSKDSTYSLSSTLTLSKADYEKHKVYACEVTHQGLSSPVTKSFNRGEC
heavy: EVQLQQSGPELVKPGASVKMSCKASGYTFTDYYMKWVKQSHGKSLEWIGDIIPSNGATFYNQKFKGKATLTVDRSSSTAYMHLNSLTSEDSAVYYCTRSHLLRASWFAYWGQGTLVTVSASQVQLVESGGGVVQPGRSLRLSCAASGFTFTKAWMHWVRQAPGKQLEWVAQIKDKSNSYATYYAASVKGRFTISRDDSKNTLYLQMNSLRAEDTAVYYCRGVYYALSPFDYWGQGTLVTVSSRTASTKGPSVFPLAPSSKSTSGGTAALGCLVKDYFPEPVTVSWNSGALTSGVHTFPAVLQSSGLYSLSSVVTVPSSSLGTQTYICNVNHKPSNTKVDKKVEPKSCDKTHTHHHHHH
B13 was tested, and the Kd [2] was 0.0321 µM, the koff [2] was 0.000713 s⁻¹ and the kon [2] was 22200 M⁻¹ s⁻¹.

B14: 6C9-C9 anti-CD3 antibody (hybridoma supernatant) (antibody, V domains shown)
VH: AVQLVESGGGLVRPKESLKISCAASGFTFRNAAMYWVRQAPGKGLEWVARIRTQPNNYAKYYADSVKDRFTISRDDSKSMVYLQMDNLKTEDTAMYYCTGLVVTAMDAWGQGTSVTVSS
VL: DIQMTQSPSFLSASVGDRVTINCKASQNINKYLNWYQQKLGEAPKLLIYVTNNLQTGIPSRFSGSGSGTDYTLTISSLQPEDVATYFCLQHRSMYTFGTGTKLELK
notes: as for B1
In the case of B14, the “RU at 25 nM” value [1] is reported as 26 RU.
